Assays:
[1] = Conversion of PEG conjugates to drug in human plasma; format: in vitro ADME
[2] = Pharmacokinetic comparison of Compound A and prodrug in mouse; format: in vivo

[Cmpd A] (μM) at 1 hr ([2]; time 1 hr) [µM]	[Cmpd A] (μM) at 4 hr ([2]; time 4 hr, BLOQ = below level of quantitation)	[Cmpd A] (μM) at 6 hr ([2]; time 6 hr, BLOQ = below level of quantitation)	[Cmpd A] (μM) at 24 hr ([2]; time 24 hr, BLOQ = below level of quantitation)	Structure (SMILES)	Conversion to drug in Human Plasma (%) 2 min [1] [%]	Conversion to drug in Human Plasma (%) 30 min [1] [%]	Conversion to drug in Human Plasma (%) 1 hr [1] [%]	Conversion to drug in Human Plasma (%) 2 hr [1] [%]	Conversion to drug in Human Plasma (%) 4 hr [1] [%]
–	–	–	–	COCCOCCOCCOCCOCCOCCOCCOCCn1cc(CNC(=O)c2cccc(S(=O)(=O)OCC(C)(O)C(=O)[C@H](CC(C)C)NC(=O)[C@H](Cc3ccccc3)NC(=O)[C@H](CC(C)C)NC(=O)[C@H](CCc3ccccc3)NC(=O)CN3CCOCC3)c2)nn1 (some centres unmarked)	7	63	100	95	80
–	–	–	–	COCCOCCOCCOCCOCCOCCOCCOCCn1cc(COCCCS(=O)(=O)OCC(C)(O)C(=O)[C@H](CC(C)C)NC(=O)[C@H](Cc2ccccc2)NC(=O)[C@H](CC(C)C)NC(=O)[C@H](CCc2ccccc2)NC(=O)CN2CCOCC2)nn1 (some centres unmarked)	2	18	58	90	80
0.008	BLOQ	BLOQ	BLOQ	CC(C)C[C@H](NC(=O)[C@H](CCc1ccccc1)NC(=O)CN1CCOCC1)C(=O)N[C@@H](Cc1ccccc1)C(=O)N[C@@H](CC(C)C)C(=O)[C@@]1(C)CO1 [Cmpd A, (S)-4-methyl-N—((S)-1-(((S)-4-methyl-1-((R)-2-methyloxiran-2-yl)-1-oxopentan-2-yl)amino)-1-oxo-3-phenylpropan-2-yl)-2-((S)-2-(2-morpholinoacetamido)-4-phenylbutanamido)pentanamide]	–	–	–	–	–
